{
  "source": "patent US20140057807A1",
  "about": "(UNIVERSITY OF CHICAGO, published 2014)",
  "data": [
    {"molecular_target": "T1, yeast small ubiquitin-like modifier protein (yeast, UniProt Q12306 3-98 = SUMO)", "T1 construct": "GST fusion in most phage ELISAs, His-tagged or tag-cleaved elsewhere; also called ySUMO; yeast SUMO", "T1 sequence (Q12306 3-98 limits assumed)": "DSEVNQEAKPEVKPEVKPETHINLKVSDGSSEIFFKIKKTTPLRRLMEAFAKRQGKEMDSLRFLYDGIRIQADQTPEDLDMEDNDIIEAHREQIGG", "assay": "SPR; column 'Estimated Kd (nM)'", "in_short": "(§1)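 Purified His-tagged molecules were captured on an NTA surface of a Biacore 2000 to reach a theoretical maximum target response of 100-200 RU, and target at varying concentrations was flowed at 30 μL/min. Estimated Kd values come from surface plasmon resonance binding signals, analysed either by kinetic fitting in BIAevaluation software or by fitting equilibrium responses to a saturation binding curve with 1:1 binding.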", "units": {"Kd": "nM"}, "values": [
      {"binder": "ySMB-20 (designed binder, variable loops only; library YSGW) VSSVPTKLEVVAATPTSLLISWDAGYYMNYYMVDYYRITYGETGGNSPVQEFTVPGSSSTATISGLSPGVDYTITVYAYWYDEYGQYWWSESPISINYRT", "Kd": 66},
      {"binder": "ySMB-17 (designed binder, variable loops only; library YSGW) VSSVPTKLEVVAATPTSLLISWDASSSSVSYYRITYGETGGNSPVQEFTVPGSSSTATISGLSPGVDYTITVYAYIQYYDLYYASPISINYRT", "Kd": 40}
    ]},
    {"molecular_target": "T2, human Abl SH2 domain (human, UniProt P00519 112-232, limits assumed)", "T2 construct": "domain: SH2 domain; poly-histidine tagged in selection; tag cleaved for SPR and crystals; also called Ab1SH2; SH2 domain of Abl kinase", "T2 sequence (looked up)": "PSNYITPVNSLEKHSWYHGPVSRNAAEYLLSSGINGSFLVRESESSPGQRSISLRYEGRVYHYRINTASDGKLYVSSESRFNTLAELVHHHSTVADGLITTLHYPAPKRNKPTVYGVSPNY", "assay": "phage display selection hit, BL1 library", "values": [
      {"binder": "SEQ ID NO 42 (designed binder) VSSVPTKLEVVAATPTSLLISWDAPAVTVDYYVITYGETGGNSPVQEFEVPGSKSTATISGLSPGVDYTITVYATYGDAYWHYYYSPISINYRT", "binding result": "binds"},
      {"binder": "SEQ ID NO 39 (designed binder) VSSVPTKLEVVAATPTSLLISWDAPAVTVDFYVITYGETGSYGSYPQAFEVPGSKSTATISGLSPGVDYTITVYTESEGYISSSPISINYRT", "binding result": "binds"},
      {"binder": "SEQ ID NO 37 (designed binder) VSSVPTKLEVVAATPTSLLISWDAPAVTVVYYNITYGETGGNSPVQEFTVPGSKSTATISGLSPGVDYTITVYAWYEYGGYMEIDSPISINYRT", "binding result": "binds"},
      {"binder": "SEQ ID NO 41 (designed binder) VSSVPTKLEVVAATPTSLLISWDAPAVTVDYYYITYGETGGNSPVQEFTVPGSKSTATISGLSPGVDYTITVYAWYWNDYYMSSMSPISINYRT", "binding result": "binds"},
      {"binder": "SEQ ID NO 38 (designed binder) VSSVPTKLEVVAATPTSLLISWDAPAVTVDYYVITYGETGVPYYGWQEFEVPGSKSTATISGLSPGVDYTITVYAYPGSNWFYDWWSPISINYRT", "binding result": "binds"}
    ]},
    {"molecular_target": "human ubiquitin (human, UniProt P0CG48 1-76)", "assay": "phage display selection hit, BL1 library", "values": [
      {"binder": "SEQ ID NO 23 (designed binder) VSSVPTKLEVVAATPTSLLISWDAPAVTVDFYVITYGETGSFSPPQEFTVPGSKSTATISGLSPGVDYTITVYAMMWGWEYYDYNISPISINYRT", "binding result": "binds"},
      {"binder": "SEQ ID NO 27 (designed binder) VSSVPTKLEVVAATPTSLLISWDAPAVTVDFYVITYGETGSFSPPQEFTVPGSKSTATISGLSPGVDYTITVYAMMWGWEYYDYNISPISINYRT", "binding result": "binds"},
      {"binder": "SEQ ID NO 25 (designed binder) VSSVPTKLEVVAATPTSLLISWDAPAVTVDFYVITYGETGSFSPPQEFTVPGSKSTATISGLSPGVDYTITVYAMMWGWEYYDYNISPISINYRT", "binding result": "binds"},
      {"binder": "SEQ ID NO 26 (designed binder) VSSVPTKLEVVAATPTSLLISWDAPAVTVDHYVITYGETGGVWYGYQEFTVPGSKSTATISGLSPGVDYTITVYAMTSYFQEYWSPISINYRT", "binding result": "binds"},
      {"binder": "SEQ ID NO 14 (designed binder) VSSVPTKLEVVAATPTSLLISWDAPAVTVDHYHITYGETGGSWSGYQEFTVPGSKSTATISGLSPGVDYTITVYANSSWYWYNPISINYRT", "binding result": "binds"},
      {"binder": "SEQ ID NO 17 (designed binder) VSSVPTKLEVVAATPTSLLISWDAPAVTVDYYVITYGETGWYSPPQEFTVPGSKSTATISGLSPGVDYTITVYAWNWSAGLQSPISINYRT", "binding result": "binds"},
      {"binder": "SEQ ID NO 13 (designed binder) VSSVPTKLEVVAATPTSLLISWDAPAVTVDYYVITYGETGGGYYSFQAFEVPGSKSTATISGLSPGVDYTITVYAFWPDDYYYGGSEYSPISINYRT", "binding result": "binds"},
      {"binder": "SEQ ID NO 24 (designed binder) VSSVPTKLEVVAATPTSLLISWDAPAVTVDLYIITYGETGSYHGWQTFTVPGSKSTATISGLSPGVDYTITVYADSSTWPYWYYSSPISINYRT", "binding result": "binds"},
      {"binder": "SEQ ID NO 19 (designed binder) VSSVPTKLEVVAATPTSLLISWDAPAVTVDFYIITYGETGGGYYSYQTFTVPGSKSTATISGLSPGVDYTITVYANEFGKSYPYTMNPISINYRT", "binding result": "binds"},
      {"binder": "SEQ ID NO 15 (designed binder) VSSVPTKLEVVAATPTSLLISWDAPAVTVDHYVITYGETGAHYYYFQEFEVPGSKSTATISGLSPGVDYTITVYAVSHGTDGNKLYFFSPISINYRT", "binding result": "binds"},
      {"binder": "SEQ ID NO 20 (designed binder) VSSVPTKLEVVAATPTSLLISWDAPAVTVLYYVITYGETGGNSPVQEFTVPGSKSTATISGLSPGVDYTITVYATDYGPGYPYESPISINYRT", "binding result": "binds"},
      {"binder": "SEQ ID NO 21 (designed binder) VSSVPTKLEVVAATPTSLLISWDAPAVTVDLYHITYGETGGVWSGYQEFTVPGSKSTATISGLSPGVDYTITVYAVQHQEIWPYYYSPISINYRT", "binding result": "binds"},
      {"binder": "SEQ ID NO 18 (designed binder) VSSVPTKLEVVAATPTSLLISWDAPAVTVDYYVITYGETGGNSPVQEFTVPGSKSTATISGLSPGVDYTITVYAWSWKYWYHGSPISINYRT", "binding result": "binds"},
      {"binder": "SEQ ID NO 22 (designed binder) VSSVPTKLEVVAATPTSLLISWDAPAVTVDHYFITYGETGGSWSYYQEFAVPGSKSTATISGLSPGVDYTITVYAYSYEPYYYYNPISINYRT", "binding result": "binds"},
      {"binder": "SEQ ID NO 12 (designed binder) VSSVPTKLEVVAATPTSLLISWDAPAVTVDHYNITYGETGAFWHYVQAFTVPGSKSTATISGLSPGVDYTITVYAEWDQYVVGSPISINYRT", "binding result": "binds"}
    ]},
    {"molecular_target": "T1, yeast small ubiquitin-like modifier …", "assay": "SPR (monobody on the chip via His-tag, target flowed); estimated Kd", "procedure": "Cradle molecules purified as described above were immobilized via His-tag to an NTA surface using a Biacore™ 2000 instrument so that the theoretical maximum response (Rₘₐₓ) from target binding was 100-200 RU. Target protein at varying concentrations was then flowed over the surface at a flow rate of 30 μL/min and the binding signal recorded. Fitting of kinetic traces was carried out using the BIAevaluation software. For equilibrium experiments, the equilibrium binding response was recorded for multiple target concentrations and fit to a simple 1:1 saturation binding curve.", "units": {"Kd": "nM"}, "values": [
      {"binder": "Clone# 1 (ySUMO Monobodies) (designed binder, recovered against ySUMO from the SUMO-targeted library) VSSVPTKLEVVAATPTSLLISWDASSSSVSYYRITYGETGGNSPVQEFTVPGSSSTATISGLSPGVDYTITVYAYYSYYDIYYAVSPSSINYRT", "Kd": 39},
      {"binder": "Clone# 2 (ySUMO Monobodies) (designed binder, recovered against ySUMO from the SUMO-targeted library) VSSVPTKLEVVAATPTSLLISWDASSSSVSYYRITYGETGGNSPVQEFTVPGSSSTATISGLSPGVDYTITVYAYYSEEFFDYAVSPSSINYRT", "Kd": 194},
      {"binder": "Clone# 3 (ySUMO Monobodies) (designed binder, recovered against ySUMO from the SUMO-targeted library) VSSVPTKLEVVAATPTSLLISWDASSSSVSYYRITYGETGGNSPVQEFTVPGSSSTATISGLSPGVDYTITVFAYYSEEFFDYAYSPSSINYRT", "Kd": 435},
      {"binder": "Clone# 4 (ySUMO Monobodies) (designed binder, recovered against ySUMO from the SUMO-targeted library) VSSVPTKLEVVAATPTSLLISWDASSSSVSYYRITYGETGGNSPVQEFTVPGSSSTATISGLSPGVDYTITVYAYYSDDFLDFAFSPSSINYRT", "Kd": 3300}
    ]},
    {"molecular_target": "T1, yeast small ubiquitin-like modifier …", "assay": "SPR; column 'Estimated Kd (nM)' [Continued]", "in_short": "as §1", "units": {"Kd": "nM"}, "values": [
      {"binder": "ySMB-67 (designed binder, variable loops only; library YSGW) VSSVPTKLEVVAATPTSLLISWDAGSFGFHDPVYYYRITYGETGGNSPVQEFTVPGSSSTATISGLSPGVDYTITVYAYYQYMDYYYSYSPISINYRT", "Kd": 1000},
      {"binder": "ySMB-64 (designed binder, variable loops only; library YSGW) VSSVPTKLEVVAATPTSLLISWDASQFSGVSYYRITYGETGGNSPVQEFTVPGSYSTATISGLSPGVDYTITVYAYYHEHWGYYSYSPISINYRT", "Kd": 280},
      {"binder": "ySMB-91 (designed binder, variable loops only; library YS) VSSVPTKLEVVAATPTSLLISWDASYSSSSVSYYRITYGETGGNSPVQEFTVPGSSSTATISGLSPGVDYTITVYAYYYSYYYYYSYSPISINYRT", "Kd": 1000},
      {"binder": "ySMB-90 (designed binder, variable loops only; library YS) VSSVPTKLEVVAATPTSLLISWDASSSSVSYYRITYGETGGNSPVQEFTVPGSSSTATISGLSPGVDYTITVYAYYYSYYYSYSYSPISINYRT", "Kd": 320},
      {"binder": "ySMB-69 (designed binder, variable loops only; library YSGW) VSSVPTKLEVVAATPTSLLISWDASSSSVSYYRITYGETGGNSPVQEFTVPGSSSTATISGLSPGVDYTITVYAYYSTYWYDWSGSPISINYRT", "Kd": 138},
      {"binder": "ySMB-71 (designed binder, variable loops only; library YSGW) VSSVPTKLEVVAATPTSLLISWDASSSSVSYYRITYGETGGNSPVQEFTVPGSSSTATISGLSPGVDYTITVYAYYVGDGYYWSESPISINYRT", "Kd": 230},
      {"binder": "ySMB-74 (designed binder, variable loops only; library YSGW) VSSVPTKLEVVAATPTSLLISWDASSSSVSYYRITYGETGGNSPVQEFTVPGSSSTATISGLSPGVDYTITVYAYYYFYDYWMAYSPISINYRT", "Kd": 544}
    ]}
  ]
}
